# Counter-ions that a name gives are not always drawn. Ends that are not written are not given here. * marks the point of attachment. Biotin = O=C1N[C@H]2[C@H](CS[C@H]2CCCCC(=O)*)N1
# Assays:
# [1] = tested on: hSyntenin : Presenilin (115L); experiment: G assay with FDA approved drug (Example 7, TABLE 10A); format: binding; settings: OD in absence of drug 1.1; drug concentration per TABLE 11; read after 30 minutes
# Protocol: For certain of the PDZ proteins and PL proteins shown to bind together and for which Kd values had been obtained, additional testing was conducted to determine whether certain pharmaceutical compounds would act to antagonize or agonize the interactions. Assays were conducted as for the G′ assay described supra both in the presence and absence of test compound, except that 50 ul of a 10 uM solution of the biotinylated PL peptide is allowed to react with the surface bearing the PDZ-domain polypeptide instead of a 20 uM solution as specified in step (2) of the assay.
# In both tables, the first column (left to right) entitled “PDZ domain” lists the gene name of GST-PDZ domain fusion (see TABLE 9). Entries having two numbers separated by a slash indicate which PDZ domain was utilized. For example, in TABLE 10A, the entry for ZO-3 is 1/3. This means that PDZ domain 1 of 3 was used.
# The second column labeled “PL” indicates the name of the PDZ ligand (see TABLES 10A and 10B) interacting with the PDZ domain. The third column entitled “Drug” lists the common or trade name of pharmaceutical compound tested and found to modulate the specific PDZ-PL interaction (suppliers and chemical information are listed in TABLE 11). The final column with the heading “Change in OD” indicates the change in absorbance at 450 nm of the assay in the absence (first number) or presence (second number) of chemical compound.
# Many FDA approved drugs have unknown mechanism of function. It is quite possible that some of these drugs function by disrupting or increasing PDZ/PL interactions. This possibility was examined by using the ‘G Assay’ (Example 3 section D). FDA approved drugs were incubated in the presence of the labeled peptide and compared to the same interaction without drug to determine if there was an effect on specific PDZ:PL interactions (drugs added with peptide at step 9 in Example 3D). The primary focus of this experiment was on drugs involved in treatment of depression (amitriptyline, desipramine, trimipramine, benztropine, and nortryptilline) and epilepsy (valproic acid). No modes of action are known for these drugs.
# Therapeutic dose was determined by guidelines given in the Physician's Desk Reference and in the assay, 200 times this amount was used. If a dosage range was given, the upper end of the range was used. Each interaction listed in TABLES 10A & B was tested in the ‘G Assay’ (see Example 3) against each of the drugs listed in TABLE 11. The concentration of GST-fusion protein and peptide used in the assay represent the Kd and were determined by titration. These values can be found in TABLE 7. The drugs were added to the peptide before addition to the well containing the PDZ protein. Otherwise, the assay was carried out as described and read at 450 nm after 30 minutes of developing. For the sequences of the PDZs and PLs used in these tests, see TABLES 8 & 9.
# List of interactions and therapeutics for which a modulation of binding was observed. Concentrations at which the GST-PDZ fusion protein and labeled peptide were used can be found in Table 7 or Table 12.
# [2] = target: T1, PDZ protein (GST-PDZ fusion) (Homo sapiens, UniProt P78352); experiment: G' assay (10 uM PL peptide), results of TABLE 7 and TABLE 12; format: binding; settings: PDZ PSD95, PDZ Domain 1, 2, 3
# T1 construct: made in house; host or cells: E. coli (DH5alpha, BL21 or JM109)
# Method in brief: (§1)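 Binding classes derive from A450 nm of bound biotin-tagged PL peptide. A score of 5 needs A450 above 4 in more than two repeats.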
# [3] = target: T2, PDZ protein (GST-PDZ fusion) (Homo sapiens, UniProt O14907); experiment: as above; format: binding; settings: PDZ TIP1, PDZ Domain 1
# T2 construct: made in house; host or cells: E. coli (DH5alpha, BL21 or JM109)
# T2 sequence (O14907 1-124): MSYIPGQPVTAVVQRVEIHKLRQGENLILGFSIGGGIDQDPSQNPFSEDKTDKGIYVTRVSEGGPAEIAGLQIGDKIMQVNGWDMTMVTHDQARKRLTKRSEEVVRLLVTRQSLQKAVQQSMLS
# Method in brief: as §1
# [4] = target: T3, PDZ protein (GST-PDZ fusion) (Homo sapiens, UniProt Q6P0Q8); experiment: as above; format: binding; settings: PDZ KIAA807
# T3 construct: made in house; host or cells: E. coli (DH5alpha, BL21 or JM109)
# Method in brief: as §1
# [5] = target: T4, PDZ protein (GST-PDZ fusion) (Homo sapiens, UniProt O15021); experiment: as above; format: binding; settings: PDZ KIAA0303, PDZ Domain 1
# T4 construct: made in house; host or cells: E. coli (DH5alpha, BL21 or JM109)
# Method in brief: as §1
# [6] = tested on: PDZ protein (GST-PDZ fusion); experiment: as above; format: binding
# Method in brief: as §1
# [7] = target: T5, PSD95 (PDZ Domain 1, 2, 3) (Homo sapiens, UniProt P78352); experiment: G' assay, TABLE 12; format: binding; settings: A450 nm class of biotinylated PL peptide bound; 0 in conc columns = peptide 10 uM, protein 5 ug/ml
# T5 construct: When more than one PDZ domain was cloned, the DNA portion cloned represents the PDZ domains and the cDNA portion located between individual domains; made in house; host or cells: E. coli (DH5alpha, BL21 or JM109)
# Protocol: (§2) The third column labeled “Peptide Optimal Concentration” in the tables is a number reflective of the binding interaction between the PL protein and PDZ protein. […] The column labeled “Protein Optimal Concentration” refers to the protein concentration used to assay PL interaction (in ug/ml); a ‘0’ is indicative of 5 ug/ml protein concentration; any other value represents the concentration (in ug/ml) used to determine the dissociation constant for a given interaction.
# (§3) Finally, the seventh column labeled “Classification” is another measure of the level of binding. In particular, it provides an absorbance value at 450 nm which indicates the amount of PL peptide bound to the PDZ protein. The following numerical values have the following meanings: ‘1’—A450 nm 0-1; ‘2’—A450 nm 1-2; ‘3’—A450 nm 2-3; ‘4’—A450 nm 3-4; ‘5’—A450 nm of 4 more than 2× repeated; ‘0’—A450 nm 0, i.e., not found to interact. Thus, higher numbers indicate stronger interactions.
# (§4) For convenience, the assay conditions described in this section are referred to as the “G′ assay” and the “G″ assay,” with the specific conditions described in the preceding section on G assays being referred to as the “G^0 assay.” The “G′ assay” is identical to the “G^0 assay” except at step (2) the peptide concentration is 10 uM instead of 20 uM. […] Correspondingly, it slightly increases the certainty that detected interactions are of sufficient affinity and half-life to be of biological importance and useful therapeutic targets.
# DLG1 (PDZ Domain 1, 2) = target: T6, DLG1 (PDZ Domain 1, 2) (Homo sapiens, UniProt Q12959); experiment: G' assay, TABLE 12; format: binding; settings: A450 nm class of biotinylated PL peptide bound; 0 in conc columns = peptide 10 uM, protein 5 ug/ml
# T6 construct: made in house; host or cells: E. coli (DH5alpha, BL21 or JM109)
# Protocol: as §2, §3, §4
# NeDLG (PDZ Domain 1, 2) = target: T7, NeDLG (PDZ Domain 1, 2) (Homo sapiens, UniProt Q92796); experiment: G' assay, TABLE 12; format: binding; settings: A450 nm class of biotinylated PL peptide bound; 0 in conc columns = peptide 10 uM, protein 5 ug/ml
# T7 construct: When more than one PDZ domain was cloned, the DNA portion cloned represents the PDZ domains and the cDNA portion located between individual domains; made in house; host or cells: E. coli (DH5alpha, BL21 or JM109)
# T7 sequence (Q92796 129-315 limits assumed): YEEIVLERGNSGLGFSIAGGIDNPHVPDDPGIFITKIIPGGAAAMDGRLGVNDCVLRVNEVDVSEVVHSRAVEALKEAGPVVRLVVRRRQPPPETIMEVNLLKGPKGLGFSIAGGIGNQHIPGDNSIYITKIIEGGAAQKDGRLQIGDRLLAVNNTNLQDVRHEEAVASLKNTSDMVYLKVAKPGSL
# Protocol: as §2, §3, §4
# [8] = target: T8, PDZ protein (GST-PDZ fusion) (Homo sapiens, UniProt Q12923); experiment: G' assay (10 uM PL peptide), results of TABLE 7 and TABLE 12; format: binding; settings: PDZ PTPL-1, PDZ Domain 2
# T8 construct: made in house; host or cells: E. coli (DH5alpha, BL21 or JM109)
# Method in brief: as §1
# [9] = target: T9, PDZ protein (GST-PDZ fusion) (Homo sapiens, UniProt Q5TCQ9); experiment: as above; format: binding; settings: PDZ KIAA1634, PDZ Domain 2
# T9 construct: made in house; host or cells: E. coli (DH5alpha, BL21 or JM109)
# T9 sequence (Q5TCQ9 1-1481): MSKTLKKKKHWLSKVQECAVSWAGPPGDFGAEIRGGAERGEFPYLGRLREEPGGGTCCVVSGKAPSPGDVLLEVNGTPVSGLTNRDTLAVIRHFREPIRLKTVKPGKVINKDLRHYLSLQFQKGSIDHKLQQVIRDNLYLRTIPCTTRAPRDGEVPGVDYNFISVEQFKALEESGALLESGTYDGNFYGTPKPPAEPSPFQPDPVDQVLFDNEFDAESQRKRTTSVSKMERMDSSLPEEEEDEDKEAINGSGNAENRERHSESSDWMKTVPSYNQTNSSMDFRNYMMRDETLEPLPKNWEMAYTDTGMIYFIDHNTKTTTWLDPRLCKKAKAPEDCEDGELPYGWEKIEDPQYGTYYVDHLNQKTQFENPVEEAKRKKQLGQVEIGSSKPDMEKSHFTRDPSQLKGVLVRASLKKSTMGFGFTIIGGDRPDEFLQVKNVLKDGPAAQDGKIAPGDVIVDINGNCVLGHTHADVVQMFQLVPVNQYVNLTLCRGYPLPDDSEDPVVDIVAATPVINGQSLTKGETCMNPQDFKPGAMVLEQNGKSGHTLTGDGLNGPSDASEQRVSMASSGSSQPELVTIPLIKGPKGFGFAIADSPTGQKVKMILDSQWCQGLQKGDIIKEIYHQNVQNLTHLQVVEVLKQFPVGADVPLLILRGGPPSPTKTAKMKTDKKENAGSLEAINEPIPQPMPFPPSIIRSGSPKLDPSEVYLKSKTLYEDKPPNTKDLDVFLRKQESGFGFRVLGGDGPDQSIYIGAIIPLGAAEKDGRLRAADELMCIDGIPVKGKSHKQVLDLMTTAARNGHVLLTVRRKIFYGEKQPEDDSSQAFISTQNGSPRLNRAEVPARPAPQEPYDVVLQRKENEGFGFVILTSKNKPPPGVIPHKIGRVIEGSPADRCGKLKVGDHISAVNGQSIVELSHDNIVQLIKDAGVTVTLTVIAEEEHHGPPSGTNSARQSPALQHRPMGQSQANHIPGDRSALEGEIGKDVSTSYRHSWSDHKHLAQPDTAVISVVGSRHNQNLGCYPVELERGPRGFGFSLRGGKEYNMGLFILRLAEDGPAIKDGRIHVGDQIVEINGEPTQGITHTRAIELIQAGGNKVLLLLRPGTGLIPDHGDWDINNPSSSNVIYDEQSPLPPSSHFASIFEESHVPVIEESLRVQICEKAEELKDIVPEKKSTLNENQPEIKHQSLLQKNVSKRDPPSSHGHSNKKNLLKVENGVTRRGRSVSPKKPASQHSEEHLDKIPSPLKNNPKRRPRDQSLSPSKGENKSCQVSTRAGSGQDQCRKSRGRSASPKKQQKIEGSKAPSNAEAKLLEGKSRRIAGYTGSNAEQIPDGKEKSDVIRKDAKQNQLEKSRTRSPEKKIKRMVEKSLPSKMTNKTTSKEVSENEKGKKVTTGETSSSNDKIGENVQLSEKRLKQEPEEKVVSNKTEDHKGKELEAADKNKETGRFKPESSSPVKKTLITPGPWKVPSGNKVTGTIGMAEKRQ
# Method in brief: as §1
# [10] = tested on: Mouse T cell lines stimulated with anti-mouse CD3; experiment: T cell stimulation assay, anti-mouse CD3, IFNγ ELISA (FIG. 1B); format: cell-based; settings: 10 μM Tat-peptide; compared to Tat-peptide alone
# Protocol: Cell Cultures Cells were maintained and tested in RPMI 1640 media supplemented with 10% fetal calf serum (HyClone), 2 mM glutamine, 10 mM Hepes, 100 U/ml penicillin, 100 μg/ml streptomycin, 0.1 mM non-essential amino acids, 1 mM sodium pyruvate, and 50 μM beta mercaptoethanol.
# Supernatants were assayed for cytokine production following activation of T cell lines. Mouse T cell lines were stimulated using two different methods, either with antigen and antigen presenting cells or anti-mouse CD3.
# Antibody against mouse CD3 (Pharmigen #145-2C11) was coated overnight at 4° C. using 96-well flat bottom Elisa plates at a final concentration of 0.5 μg/ml, diluted in PBS. Just prior to use, plates were washed three times with 200 μl/well PBS to remove excess anti-CD3. […]
# IFNγ was measured from cell supernatants, described above, at ambient temperature using the Endogen, Inc. ELISA protocol 3. […] The presence of IFNγ was detected with a biotin-labeled anti-mouse IFNγ monoclonal antibody (MM700B, Endogen, Inc.,). […] The absorbance at 450 nm was measured using a microtiter plate reader (Thermo Max, Molecular Devices) and the concentration of unknown IFNγ from cell supernatants was calculated from a standard curve generated by Softmax Pro software (Molecular Devices).
# T8 sequence (Q12923 whole entry, the tested form may be a part): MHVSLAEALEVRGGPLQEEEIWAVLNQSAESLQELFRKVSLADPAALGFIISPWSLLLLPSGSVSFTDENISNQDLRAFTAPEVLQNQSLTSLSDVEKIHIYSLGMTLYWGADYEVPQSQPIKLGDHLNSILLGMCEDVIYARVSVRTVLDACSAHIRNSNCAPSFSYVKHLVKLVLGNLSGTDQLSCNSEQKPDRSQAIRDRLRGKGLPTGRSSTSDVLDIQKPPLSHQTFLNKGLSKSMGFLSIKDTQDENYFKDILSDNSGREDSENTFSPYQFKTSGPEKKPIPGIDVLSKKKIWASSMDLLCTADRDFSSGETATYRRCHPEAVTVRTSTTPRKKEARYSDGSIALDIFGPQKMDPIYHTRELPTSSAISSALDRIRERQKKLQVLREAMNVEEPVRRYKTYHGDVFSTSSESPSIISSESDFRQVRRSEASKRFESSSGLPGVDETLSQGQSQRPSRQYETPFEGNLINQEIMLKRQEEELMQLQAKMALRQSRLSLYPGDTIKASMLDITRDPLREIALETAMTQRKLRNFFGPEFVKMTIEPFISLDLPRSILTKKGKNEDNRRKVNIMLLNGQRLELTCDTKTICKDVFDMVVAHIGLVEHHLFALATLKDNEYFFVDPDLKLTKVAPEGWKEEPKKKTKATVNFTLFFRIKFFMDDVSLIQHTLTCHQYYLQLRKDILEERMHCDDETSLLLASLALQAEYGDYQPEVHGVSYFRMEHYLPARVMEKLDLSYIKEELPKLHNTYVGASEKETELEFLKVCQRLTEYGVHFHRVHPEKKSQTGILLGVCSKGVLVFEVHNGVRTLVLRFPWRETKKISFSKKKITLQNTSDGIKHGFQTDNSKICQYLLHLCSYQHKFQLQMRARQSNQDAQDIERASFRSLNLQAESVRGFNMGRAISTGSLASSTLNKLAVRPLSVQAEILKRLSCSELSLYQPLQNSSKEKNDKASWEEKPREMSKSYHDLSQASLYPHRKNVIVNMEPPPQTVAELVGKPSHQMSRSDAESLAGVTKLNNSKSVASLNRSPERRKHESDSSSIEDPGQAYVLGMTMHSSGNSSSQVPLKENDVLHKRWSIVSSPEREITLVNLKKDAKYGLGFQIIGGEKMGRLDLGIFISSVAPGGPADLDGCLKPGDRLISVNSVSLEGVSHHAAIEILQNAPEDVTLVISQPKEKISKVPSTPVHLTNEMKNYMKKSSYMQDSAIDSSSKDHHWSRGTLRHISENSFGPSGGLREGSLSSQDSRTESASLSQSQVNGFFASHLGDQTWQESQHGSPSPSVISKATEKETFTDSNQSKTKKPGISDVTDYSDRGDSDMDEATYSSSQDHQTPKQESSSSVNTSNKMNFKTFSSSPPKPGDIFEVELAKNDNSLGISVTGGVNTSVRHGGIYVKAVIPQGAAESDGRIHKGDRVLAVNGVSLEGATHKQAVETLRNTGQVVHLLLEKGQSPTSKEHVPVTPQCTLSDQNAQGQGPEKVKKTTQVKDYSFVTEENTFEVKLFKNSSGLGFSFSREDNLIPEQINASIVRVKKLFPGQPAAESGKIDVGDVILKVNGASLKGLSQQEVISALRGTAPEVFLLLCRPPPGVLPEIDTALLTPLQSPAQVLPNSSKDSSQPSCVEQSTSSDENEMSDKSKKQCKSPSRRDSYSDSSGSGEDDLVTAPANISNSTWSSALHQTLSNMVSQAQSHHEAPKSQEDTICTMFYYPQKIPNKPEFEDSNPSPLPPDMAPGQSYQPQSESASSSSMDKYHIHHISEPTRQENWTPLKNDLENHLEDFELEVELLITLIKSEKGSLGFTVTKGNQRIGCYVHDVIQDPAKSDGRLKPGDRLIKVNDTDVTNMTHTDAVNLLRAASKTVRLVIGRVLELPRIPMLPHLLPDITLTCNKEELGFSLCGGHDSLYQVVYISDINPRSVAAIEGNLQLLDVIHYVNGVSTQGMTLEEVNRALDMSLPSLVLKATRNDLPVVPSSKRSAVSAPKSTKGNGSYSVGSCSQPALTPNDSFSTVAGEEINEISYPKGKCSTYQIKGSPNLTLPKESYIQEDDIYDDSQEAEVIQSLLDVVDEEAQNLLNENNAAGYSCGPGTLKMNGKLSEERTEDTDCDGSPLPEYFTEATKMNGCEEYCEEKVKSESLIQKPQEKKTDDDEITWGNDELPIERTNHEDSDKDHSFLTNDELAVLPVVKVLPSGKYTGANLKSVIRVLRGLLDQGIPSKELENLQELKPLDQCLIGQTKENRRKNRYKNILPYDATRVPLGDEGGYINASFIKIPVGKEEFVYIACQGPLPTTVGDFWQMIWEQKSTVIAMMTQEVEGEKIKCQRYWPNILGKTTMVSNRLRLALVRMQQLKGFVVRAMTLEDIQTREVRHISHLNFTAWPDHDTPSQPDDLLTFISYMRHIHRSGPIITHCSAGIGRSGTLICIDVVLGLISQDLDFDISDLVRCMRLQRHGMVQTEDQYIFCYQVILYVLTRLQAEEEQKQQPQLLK
# T1 sequence (P78352 whole entry, the tested form may be a part): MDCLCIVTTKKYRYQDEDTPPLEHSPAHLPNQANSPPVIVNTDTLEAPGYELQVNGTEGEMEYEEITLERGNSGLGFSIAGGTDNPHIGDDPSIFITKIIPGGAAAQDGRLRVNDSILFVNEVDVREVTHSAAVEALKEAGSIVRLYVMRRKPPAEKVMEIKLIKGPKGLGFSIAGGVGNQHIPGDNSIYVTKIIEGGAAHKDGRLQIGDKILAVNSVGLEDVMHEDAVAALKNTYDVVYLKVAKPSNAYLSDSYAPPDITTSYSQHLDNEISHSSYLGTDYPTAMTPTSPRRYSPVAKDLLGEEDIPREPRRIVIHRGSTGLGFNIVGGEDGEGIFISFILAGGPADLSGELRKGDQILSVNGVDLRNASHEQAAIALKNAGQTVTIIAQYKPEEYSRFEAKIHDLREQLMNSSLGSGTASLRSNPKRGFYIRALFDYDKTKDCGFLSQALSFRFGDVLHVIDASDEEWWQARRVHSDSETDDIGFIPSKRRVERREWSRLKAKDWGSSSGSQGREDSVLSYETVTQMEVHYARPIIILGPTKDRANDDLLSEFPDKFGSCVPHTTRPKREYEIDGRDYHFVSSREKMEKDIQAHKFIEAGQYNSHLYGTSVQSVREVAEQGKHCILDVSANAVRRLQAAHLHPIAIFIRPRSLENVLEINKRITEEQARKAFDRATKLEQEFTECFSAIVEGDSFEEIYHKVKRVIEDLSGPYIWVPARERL
# T3 sequence (Q6P0Q8 whole entry, the tested form may be a part): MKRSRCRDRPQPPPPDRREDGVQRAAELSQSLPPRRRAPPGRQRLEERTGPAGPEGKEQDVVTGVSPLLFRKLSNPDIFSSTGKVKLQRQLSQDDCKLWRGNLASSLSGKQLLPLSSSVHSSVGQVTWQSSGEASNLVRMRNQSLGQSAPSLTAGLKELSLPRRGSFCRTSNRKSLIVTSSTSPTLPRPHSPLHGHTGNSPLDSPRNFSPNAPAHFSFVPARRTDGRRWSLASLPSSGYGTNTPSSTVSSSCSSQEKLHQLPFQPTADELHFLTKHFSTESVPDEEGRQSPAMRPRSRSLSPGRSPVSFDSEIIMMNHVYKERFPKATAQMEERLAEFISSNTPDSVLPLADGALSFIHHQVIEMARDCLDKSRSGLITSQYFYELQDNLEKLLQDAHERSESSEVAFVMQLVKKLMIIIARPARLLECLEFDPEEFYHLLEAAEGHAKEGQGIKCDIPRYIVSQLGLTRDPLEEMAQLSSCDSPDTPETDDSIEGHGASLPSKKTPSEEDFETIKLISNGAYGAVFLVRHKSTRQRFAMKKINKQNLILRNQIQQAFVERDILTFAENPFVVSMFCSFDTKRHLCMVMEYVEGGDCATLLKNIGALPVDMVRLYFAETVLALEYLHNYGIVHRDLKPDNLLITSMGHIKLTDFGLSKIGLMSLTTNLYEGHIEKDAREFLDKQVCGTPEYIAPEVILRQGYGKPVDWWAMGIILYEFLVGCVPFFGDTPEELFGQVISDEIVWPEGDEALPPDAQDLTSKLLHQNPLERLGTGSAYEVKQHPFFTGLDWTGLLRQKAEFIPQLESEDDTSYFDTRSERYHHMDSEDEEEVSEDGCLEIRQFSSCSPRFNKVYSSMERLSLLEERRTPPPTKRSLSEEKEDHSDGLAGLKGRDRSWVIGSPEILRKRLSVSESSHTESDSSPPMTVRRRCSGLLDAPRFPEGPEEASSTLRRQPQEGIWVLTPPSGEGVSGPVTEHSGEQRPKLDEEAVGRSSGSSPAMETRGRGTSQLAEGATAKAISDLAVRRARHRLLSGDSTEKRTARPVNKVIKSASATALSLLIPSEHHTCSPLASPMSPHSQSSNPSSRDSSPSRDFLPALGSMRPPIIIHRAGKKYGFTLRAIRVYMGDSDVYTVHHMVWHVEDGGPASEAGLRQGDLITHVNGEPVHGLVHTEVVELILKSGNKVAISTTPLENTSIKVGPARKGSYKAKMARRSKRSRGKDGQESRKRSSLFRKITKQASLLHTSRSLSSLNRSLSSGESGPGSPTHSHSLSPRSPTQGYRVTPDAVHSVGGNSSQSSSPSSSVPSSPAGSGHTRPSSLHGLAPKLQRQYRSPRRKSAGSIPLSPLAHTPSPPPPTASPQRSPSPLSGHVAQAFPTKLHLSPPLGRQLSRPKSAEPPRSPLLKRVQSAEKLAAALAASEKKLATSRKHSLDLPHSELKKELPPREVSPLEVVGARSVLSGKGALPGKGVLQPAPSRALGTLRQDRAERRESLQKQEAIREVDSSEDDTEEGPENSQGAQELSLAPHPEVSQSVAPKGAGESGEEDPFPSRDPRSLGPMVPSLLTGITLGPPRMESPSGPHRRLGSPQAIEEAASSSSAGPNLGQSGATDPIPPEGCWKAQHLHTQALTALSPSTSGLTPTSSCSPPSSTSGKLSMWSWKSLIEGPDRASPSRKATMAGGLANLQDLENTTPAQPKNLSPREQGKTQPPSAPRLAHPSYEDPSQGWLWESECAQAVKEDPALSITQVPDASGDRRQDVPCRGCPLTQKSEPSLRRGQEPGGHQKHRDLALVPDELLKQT
compound,measurement,setting,value
"CC(CN(C)C)CN1c2ccccc2CCc2ccccc21 (centres unmarked) [Trinipramine, TRIMIPRAMINE MALEATE]",Change in OD: absorbance at 450 nm in presence of drug,[1],1.1 to 2.2
A2AB_HUMAN (modified) (Biotin-QDFRRAFRRILARPWTQTAW; not fully specified),Classification,[2],5 (A450 nm of 4 more than 2× repeated)
same,Classification,[3],5 (A450 nm of 4 more than 2× repeated)
same,Classification,[4],4 (A450 nm 3-4)
same,Classification,[5],4 (A450 nm 3-4)
same,Classification,"[6]; PDZ BAI-1, PDZ Domain 2",4 (A450 nm 3-4)
same,Classification,"[6]; PDZ BAI-1, PDZ Domain 4",5 (A450 nm of 4 more than 2× repeated)
HPTDITGLPNLSDPSVSTVV (Biotin-HPTDITGLPNLSDPSVSTVV) [NMDA R2C],Classification,[7],1 (A450 nm 0-1)
same,Classification,"DLG1 (PDZ Domain 1, 2)",1 (A450 nm 0-1)
same,Classification,"NeDLG (PDZ Domain 1, 2)",2 (A450 nm 1-2)
same,Classification,[8],1 (A450 nm 0-1)
same,Classification,[9],1 (A450 nm 0-1)
GYGRKKRRQRRRGSISSSAEV [Tat-CLASP1 fusion peptide],T cell activation mediated by monoclonal anti-CD3 (IFNγ production),[10],did not inhibit T cell activation
GYGRKKRRQRRRGMTSSSSVV,T cell activation mediated by monoclonal anti-CD3 (IFNγ production),[10],inhibited T cell activation

# — US20050282743A1, “Molecular interactions in cells” (Arbor Vita Corporation, priority 2001, published 2005)
